{"source": "paper PMC10922565", "about": "(Cell chemical biology, 2023)", "binders": {"B1": {"name": "CD98hc IgG (antibody, V domains shown)", "VH": "EVQLVESGGGLVQPGRSLKLSCAASGFTFSDYYMAWVRQAPKKGLEWVASISYEGSSIYYGDSVKGRVTISRDNAKSTLYLQMNSLRSEDTATYYCARRGYYGYKPFDYWGQGVMVTVSS", "VL": "DIQMTQSPASLSASVGETVTIECRASEDIYNGLAWYQQKPGKSPQLLIYNIDNLHTGVPSRFSGSGSGTQYSLKINSLQSEDVASYFCQQYYTYAYTFGAGTKLELK"}, "B2": {"name": "29D7 (TrkB-IgG) (antibody, V domains shown)", "VH": "EVQLVESGGGLVQPGGSLRLSCAASGYSFTAYFMNWVRQAPGKGLEWVARINPNNGDTFYTQKFKGRFTISRDNAKNSLYLQMNSLRAEDTAVYYCARRDYFGAMDYWGQGTLVTVSS", "VL": "DIQMTQSPSSLSASVGDRVTITCRASQTISNNLHWYQQKPGKAPKLLIKSASLAISGVPSRFSGSGSGTDFTLTISSLQPEDFATYYCQQSNSWPNTFGGGTKVEIK"}, "B3": {"name": "TfR-1 IgG (clone 8D3) (antibody, V domains shown)", "VH": "EVQLVESGGGLVQPGNSLTLSCVASGFTFSNYGMHWIRQAPKKGLEWIAMIYYDSSKMNYADTVKGRFTISRDNSKNTLYLEMNSLRSEDTAMYYCAVPTSHYVVDVWGQGVSVTVSS", "VL": "DIQMTQSPASLSASLEEIVTITCQASQDIGNWLAWYQQKPGKSPQLLIYGATSLADGVPSRFSGSRSGTQFSLKISRVQVEDIGIYYCLQAYNTPWTFGGGTKLELK"}}, "experiment_in_all_cases": "flow cytometry on cells", "key": {"[1]": {"target": "mouse CD98hc expressed on REN cells (Mus musculus, UniProt P10852-2)"}, "[2]": {"target": "mouse TrkB expressed on REN cells (Mus musculus, UniProt P15209)", "sequence (P15209 32-821)": "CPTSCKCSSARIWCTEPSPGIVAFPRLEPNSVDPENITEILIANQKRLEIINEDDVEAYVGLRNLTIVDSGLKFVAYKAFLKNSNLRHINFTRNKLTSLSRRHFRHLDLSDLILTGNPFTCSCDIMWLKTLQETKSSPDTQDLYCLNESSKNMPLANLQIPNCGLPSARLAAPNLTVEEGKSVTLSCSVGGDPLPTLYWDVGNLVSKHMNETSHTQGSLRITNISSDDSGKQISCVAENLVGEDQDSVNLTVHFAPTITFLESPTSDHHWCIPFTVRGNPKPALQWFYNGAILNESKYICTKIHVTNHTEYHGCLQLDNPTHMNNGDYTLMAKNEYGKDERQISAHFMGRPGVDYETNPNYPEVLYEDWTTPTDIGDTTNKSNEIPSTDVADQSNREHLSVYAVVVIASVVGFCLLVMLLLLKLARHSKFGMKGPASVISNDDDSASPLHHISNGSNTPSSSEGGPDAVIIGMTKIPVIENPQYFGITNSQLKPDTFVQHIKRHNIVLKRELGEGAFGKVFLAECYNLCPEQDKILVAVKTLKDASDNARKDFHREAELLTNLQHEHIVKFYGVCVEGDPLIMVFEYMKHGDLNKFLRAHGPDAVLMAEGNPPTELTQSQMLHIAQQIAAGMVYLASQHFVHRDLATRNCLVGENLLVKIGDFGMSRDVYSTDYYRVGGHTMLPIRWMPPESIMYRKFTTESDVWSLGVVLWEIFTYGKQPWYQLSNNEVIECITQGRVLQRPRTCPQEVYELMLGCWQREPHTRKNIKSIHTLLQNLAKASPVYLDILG"}, "[3]": {"target": "mouse TfR-1 expressed on REN cells (Mus musculus, UniProt Q62351)", "sequence (Q62351 whole entry)": "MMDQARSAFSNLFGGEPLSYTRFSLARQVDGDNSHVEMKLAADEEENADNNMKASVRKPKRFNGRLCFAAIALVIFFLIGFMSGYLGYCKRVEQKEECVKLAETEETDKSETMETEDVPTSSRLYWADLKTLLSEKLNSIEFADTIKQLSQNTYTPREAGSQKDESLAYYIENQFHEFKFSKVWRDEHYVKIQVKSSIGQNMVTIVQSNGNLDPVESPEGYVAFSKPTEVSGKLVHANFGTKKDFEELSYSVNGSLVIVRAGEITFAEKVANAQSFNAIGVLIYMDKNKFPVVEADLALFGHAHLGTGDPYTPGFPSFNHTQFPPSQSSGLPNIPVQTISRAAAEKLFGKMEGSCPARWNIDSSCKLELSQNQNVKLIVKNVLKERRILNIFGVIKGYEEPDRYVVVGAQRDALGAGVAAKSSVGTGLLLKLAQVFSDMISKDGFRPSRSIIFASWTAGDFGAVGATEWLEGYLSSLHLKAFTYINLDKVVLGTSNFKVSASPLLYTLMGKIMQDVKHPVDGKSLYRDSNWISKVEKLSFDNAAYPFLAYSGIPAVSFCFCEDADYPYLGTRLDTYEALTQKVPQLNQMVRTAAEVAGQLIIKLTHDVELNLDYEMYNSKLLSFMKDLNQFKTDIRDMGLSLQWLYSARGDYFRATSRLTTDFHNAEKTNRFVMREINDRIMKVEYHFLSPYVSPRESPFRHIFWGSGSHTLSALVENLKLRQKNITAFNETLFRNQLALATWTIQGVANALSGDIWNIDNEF"}}, "data": [{"binder": "B1", "values": [{"measurement": "EC50", "setting": "[1]", "result": 1.9, "unit": "nM"}]}, {"binder": "B2", "values": [{"measurement": "binding result", "setting": "[2]", "result": "binds"}]}, {"binder": "B3", "values": [{"measurement": "EC50", "setting": "[3]", "result": 3.1, "unit": "nM"}]}]}
